Literature values in PMC9898751 (The Journal of Biological Chemistry, 2022).

What was measured:
H3K9me2 = conditions: H3K4me3 present in cis; ref [35]
H3K27me2 = conditions: H3K4me3 present in cis; ref [35]
peptide substrates = conditions: mass spectrometry– and fluorescence-based demethylase assays on peptide substrates; ref [28]
[1] = phosphorylation by protein kinase A; ref [29]
[2] = tested on: histone peptide bearing H3K4me3 and H3K9me2 in cis; conditions: in contrast to PHF8; ref [28]

Molecule | activity on H3K9me2 with H3K4me3 in cis (H3K9me2) | activity toward H3K27me2 with H3K4me3 in cis (H3K27me2) | enzymatic activity in vitro (peptide substrates) | activity before phosphorylation [1] | activity on single histone peptide bearing H3K4me3 and H3K9me2 in cis [2]
KIAA1718: KDM7 family Jumonji demethylase (protein, UniProt Q6ZMT4 1-941, looked up) Lysine-specific demethylase 7A: MAGAAAAVAAGAAAGAAAAAVSVAAPGRASAPPPPPPVYCVCRQPYDVNRFMIECDICKDWFHGSCVGVEEHHAVDIDLYHCPNCAVLHGSSLMKKRRNWHRHDYTEIDDGSKPVQAGTRTFIKELRSRVFPSADEIIIKMHGSQLTQRYLEKHGFDVPIMVPKLDDLGLRLPSPTFSVMDVERYVGGDKVIDVIDVARQADSKMTLHNYVKYFMNPNRPKVLNVISLEFSDTKMSELVEVPDIAKKLSWVENYWPDDSVFPKPFVQKYCLMGVQDSYTDFHIDFGGTSVWYHVLWGEKIFYLIKPTDENLARYESWSSSVTQSEVFFGDKVDKCYKCVVKQGHTLFVPTGWIHAVLTSQDCMAFGGNFLHNLNIGMQLRCYEMEKRLKTPDLFKFPFFEAICWFVAKNLLETLKELREDGFQPQTYLVQGVKALHTALKLWMKKELVSEHAFEIPDNVRPGHLIKELSKVIRAIEEENGKPVKSQGIPIVCPVSRSSNEATSPYHSRRKMRKLRDHNVRTPSNLDILELHTREVLKRLEMCPWEEDILSSKLNGKFNKHLQPSSTVPEWRAKDNDLRLLLTNGRIIKDERQPFADQSLYTADSENEEDKRRTKKAKMKIEESSGVEGVEHEESQKPLNGFFTRVKSELRSRSSGYSDISESEDSGPECTALKSIFTTEESESSGDEKKQEITSNFKEESNVMRNFLQKSQKPSRSEIPIKRECPTSTSTEEEAIQGMLSMAGLHYSTCLQRQIQSTDCSGERNSLQDPSSCHGSNHEVRQLYRYDKPVECGYHVKTEDPDLRTSSWIKQFDTSRFHPQDLSRSQKCIRKEGSSEISQRVQSRNYVDSSGSSLQNGKYMQNSNLTSGACQISNGSLSPERPVGETSFSVPLHPTKRPASNPPPISNQATKGKRPKKGMATAKQRLGKILKLNRNGHARFFV | inactive on H3K9me2 when H3K4me3 is present in cis | more selective toward H3K27me2 |  |  | 
PHF2: KDM7 family Jumonji demethylase (protein, UniProt O75151 1-1096, looked up) Lysine-specific demethylase …: MATVPVYCVCRLPYDVTRFMIECDACKDWFHGSCVGVEEEEAPDIDIYHCPNCEKTHGKSTLKKKRTWHKHGPGQAPDVKPVQNGSQLFIKELRSRTFPSAEDVVARVPGSQLTLGYMEEHGFTEPILVPKKDGLGLAVPAPTFYVSDVENYVGPERSVDVTDVTKQKDCKMKLKEFVDYYYSTNRKRVLNVTNLEFSDTRMSSFVEPPDIVKKLSWVENYWPDDALLAKPKVTKYCLICVKDSYTDFHIDSGGASAWYHVLKGEKTFYLIRPASANISLYERWRSASNHSEMFFADQVDKCYKCIVKQGQTLFIPSGWIYATLTPVDCLAFAGHFLHSLSVEMQMRAYEVERRLKLGSLTQFPNFETACWYMGKHLLEAFKGSHKSGKQLPPHLVQGAKILNGAFRSWTKKQALAEHEDELPEHFKPSQLIKDLAKEIRLSENASKAVRPEVNTVASSDEVCDGDREKEEPPSPIEATPPQSLLEKVSKKKTPKTVKMPKPSKIPKPPKPPKPPRPPKTLKLKDGGKKKGKKSRESASPTIPNLDLLEAHTKEALTKMEPPKKGKATKSVLSVPNKDVVHMQNDVERLEIREQTKSKSEAKWKYKNSKPDSLLKMEEEQKLEKSPLAGNKDNKFSFSFSNKKLLGSKALRPPTSPGVFGALQNFKEDKPKPVRDEYEYVSDDGELKIDEFPIRRKKNAPKRDLSFLLDKKAVLPTPVTKPKLDSAAYKSDDSSDEGSLHIDTDTKPGRNARVKKESGSSAAGILDLLQASEEVGALEYNPSSQPPASPSTQEAIQGMLSMANLQASDSCLQTTWGAGQAKGSSLAAHGARKNGGGSGKSAGKRLLKRAAKNSVDLDDYEEEQDHLDACFKDSDYVYPSLESDEDNPIFKSRSKKRKGSDDAPYSPTARVGPSVPRQDRPVREGTRVASIETGLAAAAAKLSQQEEQKSKKKKSAKRKLTPNTTSPSTSTSISAGTTSTSTTPASTTPASTTPASTSTASSQASQEGSSPEPPPESHSSSLADHEYTAAGTFTGAQAGRTSQPMAPGVFLTQRRPSASSPNNNTAAKGKRTKKGMATAKQRLGKILKIHRNGKLLL |  |  | enzymatically inactive in vitro | remains inactive until it is phosphorylated by protein kinase A | cannot act on a single histone peptide bearing H3K4me3 and H3K9me2 in cis
